{"source": "paper PMC3395085", "binders": {"B1": {"name": "unprocessed U5 viral DNA end, 19 bp (N:r) (dsDNA)", "DNA 1": "TGCGAAATTCCATGACAAT", "DNA 2": "ATTGTCATGGAATTTCGCA"}, "B2": {"name": "unprocessed U5 viral DNA end, 5'-phosphate on nonreactive strand (dsDNA)", "DNA 1": "TGCGAAATTCCATGACAAT", "DNA 2": "ATTGTCATGGAATTTCGCA", "modifications": "5'-phosphate on strand 2 (nonreactive)"}, "B3": {"name": "3'-processed viral DNA end (R:N, 17/19-mer), formed in crystallo (dsDNA)", "DNA 1": "TGCGAAATTCCATGACA", "DNA 2": "ATTGTCATGGAATTTCGCA"}}, "test_in_all_cases": "X-ray crystallography", "key": {"[1]": {"biological_target": "T1, PFV integrase (IN) (prototype foamy virus, UniProt P14350 752-1143)"}, "[2]": {"biological_target": "T1, PFV integrase (IN)", "remark": "listed apart in the source"}, "[3]": {"biological_target": "T1, PFV integrase (IN)", "remark": "listed apart in the source"}}, "note": "Where two headings read alike, the source gives them in different places."}
{"binder": "B1", "values": [{"measurement": "binding result", "setting": "[1]", "value": "binds"}]}
{"binder": "B2", "values": [{"measurement": "binding result", "setting": "[2]", "value": "binds"}]}
{"binder": "B3", "values": [{"measurement": "binding result", "setting": "[3]", "value": "binds"}]}
